Patent publication US20220378956A1
Numbering of substitutions follows the chain as printed. Values belong to the binder of their own block, whether it stands above or below them.

Biological target: soluble uPAR (suPAR) (UniProt Q03405)
Assay: SPR (Biacore 2000), antibody captured on protein A/G surface, suPAR injected, 25 C, 1:1 Langmuir fit

Kd: 0.28 nM
B1: Human Engineered ATN-658 variant HE ATN-3 (antibody, V domains shown)
VH: EVQLVQSGPEVKKTGASVKISCKASGYSFTSYYMHWVRQAHGQGLEWIGEINPYNGGASYNQKIQGRATFTVDTSTSTAYMEFSSLRSEDTAVYYCARSIYGHSVLDYWGQGTLVTVSS
VL: DVVMTQSPLSLSVTIGEPASISCRSSQSLLDSDGKTYLNWLLQKPGQSPKRLIYLVSKRDSGVPDRFSGSGSGTDFTLKISRVEAEDVGVYYCWQGTHFPLTFGQGTKLEIK

Kd: 0.28 nM
B2: Human Engineered ATN-658 variant HE ATN-1 (antibody, human IgG1, V domains shown)
VH: B1 VH with K12V, R38K, Q65K, S77R
VL: B1 VL
